From the supplement of paper PMC12042874
± gives the uncertainty stated by the source.

Assay: amyloid nucleation score (Sup35N fusion, yeast selection) (log enrichment); library NNK1; higher = more nucleation; inactive = no reads after selection
Method in brief: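 In psi-negative yeast, Sup35N fusions carrying peptides of 20 random codons were induced with 100 μM copper sulfate for 24 hours. The cells then grew 7 days at 30°C on medium lacking adenine and uracil, and plasmid inserts from input and output were Illumina-sequenced, excluding sequences with under 100 input reads. Nucleation score is the DiMSum log enrichment of output over input reads, centred on the mode score of non-aggregating sequences.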
With RCSFSGNYIIILLAVRTYFE the amyloid nucleation score was 1.1 ± 0.47.
Work on VGSLFYKVRPGNNSFVTHIH yielded an amyloid nucleation score of 1.08 ± 0.88.
Substance FTSSVIILCIFYWNGLVRIF has an amyloid nucleation score of -0.505 ± 1.5.
With ANMCISGAYNCVSVLCLRNR the amyloid nucleation score was 6.59 ± 0.047.
FIEHQTRSFDKILSYAWLEA showed an amyloid nucleation score of 0.379 ± 0.61.
With VLNEAYYDLYVYSHVSFSVL the amyloid nucleation score was -0.248 ± 0.42.
With WWYSDMWMVSC the amyloid nucleation score was 2.34 ± 0.46.
Substance RTFGYGHHIAGGCRDYRVYR has an amyloid nucleation score of -0.373 ± 0.62.
Substance HVFCQRGCCERRLKIYISVS has an amyloid nucleation score of -1.45 ± 0.57.
Substance GLSQKVGKPAAALLRTMVSD has an amyloid nucleation score of -0.309 ± 0.27.
VSMFRRVASEALYRQPSMLA gave an amyloid nucleation score of 0.972 ± 0.36.
In the case of LHRRNSCSIYRLLGFCLLPI, the amyloid nucleation score is reported as 1.25 ± 0.6.
Work on IRWRSSFVQSMMVTHQHQSF yielded an amyloid nucleation score of 1.85 ± 0.16.
CSGNLVMVLSAACAKVGYLV gave an amyloid nucleation score of -1.48 ± 1.7.
With TRAHGALYREEVKTWGSRLK the amyloid nucleation score was -0.998 ± 0.8.
For LMASDVT, the amyloid nucleation score was 0.127 ± 0.43.
Work on SFMQFDIRFT yielded an amyloid nucleation score of 1.4 ± 0.27.
Work on GHLWWSVLLVPLFTVGSTSV yielded an amyloid nucleation score of 0.399 ± 0.56.
For DGMVALYVGYATSLVTWAK, the amyloid nucleation score was 0.65 ± 0.56.
For CMLDGALLLILVVFTIPCLN, the amyloid nucleation score was 0.909 ± 0.6.
With FTKFRYRTLINSYNFWGTGA the amyloid nucleation score was -0.115 ± 1.4.
In the case of IINKSLWLPRNLAFGNY, the amyloid nucleation score is reported as 0.117 ± 0.47.
NCHVT gave an amyloid nucleation score of -0.271 ± 0.29.
In the case of CVSHFIHCDWLGQRL, the amyloid nucleation score is reported as 0.135 ± 0.26.
Substance FAWLGCFSWTLNFWDKYMRG has an amyloid nucleation score of -0.856 ± 1.4.
NKYLDSKDWRAFCRSYFNLF showed an amyloid nucleation score of 0.891 ± 0.14.
For CVPSVRNSVMW, the amyloid nucleation score was -0.181 ± 0.88.
Work on NGYRNMSRREQTCLR yielded an amyloid nucleation score of -0.055 ± 0.36.
With HIPYVYGPIIRGEATYTEGV the amyloid nucleation score was -0.29 ± 1.2.
Substance EAVVRRLSEDSCMELSSDCR has an amyloid nucleation score of 0.485 ± 0.52.
Work on LVPRIRFWDYHNTELATHQK yielded an amyloid nucleation score of 5.13 ± 0.07.
Work on IRGNVKETVIFFKTRFAFCW yielded an amyloid nucleation score of 0.147 ± 0.73.
LKSRGWYCFSNVTMYDLRME showed an amyloid nucleation score of 3.42 ± 0.067.
YCKLDLPVTIEVKCSRGRMS showed an amyloid nucleation score of 5.17 ± 0.08.
Work on LFNWVTSCSGTINGWKIKRH yielded an amyloid nucleation score of 3.08 ± 0.12.
In the case of QVCLNDRNSSYVMRDICVY, the amyloid nucleation score is reported as -0.334 ± 1.2.
In the case of NLKSSYSAIPLFFIWCGTSV, the amyloid nucleation score is reported as 0.114 ± 0.31.
RHRVQTTPSSMSFV gave an amyloid nucleation score of -0.388 ± 0.96.
MDPTEEE showed an amyloid nucleation score of -0.573 ± 1.4.
Substance VALDMYCFQYFQTNYYS has an amyloid nucleation score of 8.411 ± 0.045.
Work on CYCFGQCWYDYVCIELLIGR yielded an amyloid nucleation score of 5.06 ± 0.052.
ALDQN gave an amyloid nucleation score of -0.412 ± 0.78.
YLAGILHTCLTLDSDVRFYT gave an amyloid nucleation score of 0.722 ± 0.54.
With EFWWIDICSGCYLFF the amyloid nucleation score was 6.5 ± 0.074.
VGGQRKVRSDDVSMDVHTAT showed an amyloid nucleation score of 0.924 ± 0.47.
In the case of YLQLSRAVQRVLTRRWSSI, the amyloid nucleation score is reported as 0.31 ± 0.52.
HLRCCIKTLRVSHYGGPALR gave an amyloid nucleation score of -0.596 ± 0.37.
For FTISSKLRYIGTGVINGPVD, the amyloid nucleation score was -0.397 ± 0.56.
For DSTDSVESEWNTVRSYVSLW, the amyloid nucleation score was “inactive”.
Work on QCYIGVKYHSALVWDHTPEA yielded an amyloid nucleation score of 2.29 ± 0.61.
RRLTRIIKAKL showed an amyloid nucleation score of 0.018 ± 0.78.
With HHTQE the amyloid nucleation score was -0.557 ± 1.6.
For FSGQAITLVCWIVGQILPFS, the amyloid nucleation score was “inactive”.
Work on WEVRGHPSGLMEVRDLGVRF yielded an amyloid nucleation score of 0.249 ± 0.59.
With YRCTLASNRLRFLWITSNVR the amyloid nucleation score was -0.085 ± 0.58.
Substance GLWMWEEVILISTLKLFVLV has an amyloid nucleation score of 0.139 ± 0.6.
Substance MVGRNWKTGSIVTLVMFRLE has an amyloid nucleation score of 0.041 ± 1.1.
For YLFMMAIRGAKTLVS, the amyloid nucleation score was “inactive”.
QTRRVVHSGN showed an amyloid nucleation score of 0.284 ± 0.81.
With EYWGRGEVRADMWRRWIGW the amyloid nucleation score was 1.23 ± 0.4.
CLRPLEPDVYVTRILRFCDS showed an amyloid nucleation score of -0.304 ± 0.39.
VLRLHAMRQQGICWSCVTGM showed an amyloid nucleation score of 0.185 ± 0.39.
With YDLGLIVSYDLLSVKEVPDR the amyloid nucleation score was 1.48 ± 0.55.
LPDIGCFPRTIGCMTQAECG showed an amyloid nucleation score of -0.381 ± 1.
With NTHILYVWSVMCGHMN the amyloid nucleation score was 3.35 ± 0.11.
GSADMRLDLQVVGCMTCRFE showed an amyloid nucleation score of 0.386 ± 1.1.
For ADSLSDELFDYKTYIAVKSF, the amyloid nucleation score was -0.645 ± 0.27.
TSLVVVSYMVTL gave an amyloid nucleation score of 1.93 ± 0.42.
In the case of TSYVMPEGFAVGFKMSM, the amyloid nucleation score is reported as 0.205 ± 0.66.
